What was measured:
[1] = target: biotinylated monomeric hMPV B2 F protein (human metapneumovirus (subgroup B2)); test: BLI
[2] = target: trypsinized trimeric hMPV B2 F (human metapneumovirus (subgroup B2)); test: SEC

Substance | Kd [1] [nM] | stoichiometry N [2]
101F Fab | 430 | –
trypsinized trimeric hMPV B2 F (natural protein) | – | 3
